Measured values as given in the supplement of paper PMC10567573.
± gives the standard deviation.

Assay: protein stability index of a GFP-peptide fusion (GPS, HEK-293T) (PSI 1-6); higher = more stable
Conditions: c terminus: a fixed tail appended
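Further: 24-mer peptide tiles fused after GFP, lentivirally expressed, FACS-sorted into six equal bins by GFP/DsRed ratio, decoded by Illumina sequencing, PSI is the read-weighted mean bin number.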

| Sequence | protein stability index (treatment: DMSO) | protein stability index (treatment: MLN4924 1 uM, 8 h) |
| --- | --- | --- |
| PGDMLLQVNEINFENMSNDDAVRV [DVL3] | 4.4 ± 0.35 | 4.37 ± 0.21 |
| RCACAASSDESPGSKCSPEDLATA [TTC32] | 3.83 ± 0.49 | 4.08 ± 0.23 |
| RYHRFISFALYLAGFCMFVLSLVK [CDS1] | 2.02 ± 0.21 | 2.08 ± 0.44 |
| YRSEDLLDVDTAAGGFQQRQGLKY [FBXO3] | 4.25 ± 0.18 | 4.18 ± 0.29 |
| SPNLNVVDGRLTYPTCGIGYPVSS [SASS6] | 3.06 ± 0.44 | 3.14 ± 0.4 |
| LGVVYRSLSFEDELVYADDYIMDE [ESRRG] | 2.46 ± 0.04 | 2.67 ± 0.33 |
| RARLDSMVLLIMKLDQLDQDIENA [DLC1] | 2.47 ± 0.22 | 2.4 ± 0.39 |
| LVMPIEDQLTQIMRTGQNTWESKN [PCMTD1] | 3.13 ± 0.13 | 3.2 ± 0.38 |
| DRPRCCLRGKECCINRFQQVESRW [BTBD1] | 2.89 ± 0.32 | 3.06 ± 0.38 |
| HRGLRCSWEGLAVLDSLLLTLLPQ [RSAD1] | 3.06 ± 0.41 | 3.07 ± 0.3 |
| RVAAAAGSGPSPPGSPGHDRERQP [PI4K2A] | 5.31 ± 0.5 | 5.42 ± 0.27 |
| LRSCYFSDPDCSMRPTLIDLLPTF [FBXO39] | 2.46 ± 0.35 | 2.2 ± 0.26 |
| TCISELRMLQREGCFRSQGASLRL [M1AP] | 2 ± 0.29 | 2.19 ± 0.37 |
| LGPSGLQNHGQHLILSREASWAKP [LCOR] | 3.08 ± 0.19 | 3.18 ± 0.2 |
| LLNPNLKDTVICAMKITQEPQGLG [SPACA3] | 2.4 ± 0.4 | 2.51 ± 0.21 |
| LQFEAEMARLQEEHGDQLLSIRCQ [MTUS2] | 3.99 ± 0.12 | 3.92 ± 0.51 |
| CHEDVEALAAIYEEKEAWYREESD [DAPK3] | 5.1 ± 0.22 | 5.12 ± 0.62 |
| MSEADGLRQRRPLRPQVVTDDDGQ [APMAP] | 5.36 ± 0.28 | 5.37 ± 0.33 |
| KRKRVDVEESEASSSVSISHSASA [LMNB1] | 5.29 ± 0.29 | 5.42 ± 0.17 |
| KLNLCEDGPCHKRRASICCTQLGS [SCARA5] | 3.12 ± 0.2 | 3.3 ± 0.27 |
| KCGSGARGGDGEVASAPLQPPVPS [TRADD] | 4.79 ± 0.24 | 4.78 ± 0.36 |
| NSALKDKEDQFGRTPLMYCVLADR [INVS] | 3.37 ± 0.4 | 3.23 ± 0.37 |
| YAVTPLPWCPHLVAVCPIPAAGLD [HDAC6] | 2.99 ± 0.49 | 2.33 ± 0.48 |

| Sequence | protein stability index (treatment: DMSO) | protein stability index (treatment: MLN4924 1 uM, 8 h) |
| --- | --- | --- |
| AVNLIESGACGAFVHGLEDEMYEV [INTS4] | 3.41 ± 0.24 | 3.45 ± 0.33 |
| DLSDLLQVDSLRPASFPTWGCDLG [BRF1] | 2.53 ± 0.28 | 2.73 ± 0.31 |
| LVAGIGFYQHLLLYIQSHYQLELQ [SMG5] | 2.99 ± 0.5 | 3.11 ± 0.43 |
| LKKFLYNFDNPWNFQNIPKETELP [MIA2] | 3.061 ± 0.006 | 2.66 ± 0.41 |
| LASLGASEEAVQKLATCYFFTVEF [TPH1] | 2.98 ± 0.52 | 2.73 ± 0.66 |
| LLPKSRENYLNRCMDQERLRREST [FCHO1] | 3.31 ± 0.17 | 3.21 ± 0.16 |
| QTLDKKLMSDLRRKRTAHERAKEL [INTS4] | 4.22 ± 0.27 | 4.26 ± 0.25 |
| TCVYIAEIAPQHRRGLLVSLNELM [SLC2A12] | 2.73 ± 0.6 | 2.46 ± 0.56 |
| EAAYLKILESSQTLLSVLKREAGN [SSNA1] | 2.39 ± 0.13 | 2 ± 0.26 |
| PKYQLFVPQLVTGRCATRAFHRKS [RNF180] | 2.14 ± 0.34 | 2.21 ± 0.28 |
| CVATTGDITVSVSTSFLPELSSVH [FBXO3] | 2.23 ± 0.27 | 2.14 ± 0.23 |
| IKRAEDYGPVEVISHWHPNITINI [CLPTM1] | 3.11 ± 0.39 | 2.68 ± 0.14 |
| GFALDILFAIANGFSPSYEFFAVT [SLC22A15] | 3.3 ± 0.042 | 3.29 ± 1.1 |
| RELGVWRSLLRLRATRAGAAEEPG [C2CD2L] | 3.15 ± 0.24 | 3.27 ± 0.33 |
| FARFCKSQESALGNTVPAVEPGTP [DNAAF3] | 3.63 ± 0.25 | 3.58 ± 0.21 |
| VGIFHLMQIAVPCAFLLLRLLVGL [TMEM175] | 2.81 ± 0.45 | 2.82 ± 0.47 |
| DIARMLYKDTCHELDELQLCKNCF [ZMYND11] | 2.27 ± 0.14 | 2.52 ± 0.49 |
| SSSSASADLLAGFGGSFMAPSPSP [SNAP91] | 4.24 ± 0.1 | 4.3 ± 0.24 |
| RKPAAGAQSAGTQQVAAVSSVSPA [BRD3] | 4.82 ± 0.12 | 4.86 ± 0.16 |
| LITQQIIPVLYCMVFIAGILLNGV [P2RY14] | 3.37 ± 0.2 | 3.42 ± 0.44 |
| SLDKVQRSLGPRAPSLRRHVLIHN [SERTAD3] | 3.02 ± 0.32 | 2.96 ± 0.29 |
| FFLKHPDKDVRLLVACCLADIFRI [PDS5B] | 2.95 ± 0.81 | 2.75 ± 0.17 |
